Experimental findings from patent US20240319212A1 (IMMUNDIAGNOSTIK, published 2024) are described below.

The labels stand for the following.
T1: soluble recombinant megalin M3 fragment (amino acids 2698 to 3192 of human LRP2/megalin, C-terminal 6x His … (human, UniProt P98164 2698-3192))
T1 construct: Expressed in HEK 293 cells and secreted, with the signal peptide removed; It tends to dimerise; also called E2698-R3192
T1 sequence: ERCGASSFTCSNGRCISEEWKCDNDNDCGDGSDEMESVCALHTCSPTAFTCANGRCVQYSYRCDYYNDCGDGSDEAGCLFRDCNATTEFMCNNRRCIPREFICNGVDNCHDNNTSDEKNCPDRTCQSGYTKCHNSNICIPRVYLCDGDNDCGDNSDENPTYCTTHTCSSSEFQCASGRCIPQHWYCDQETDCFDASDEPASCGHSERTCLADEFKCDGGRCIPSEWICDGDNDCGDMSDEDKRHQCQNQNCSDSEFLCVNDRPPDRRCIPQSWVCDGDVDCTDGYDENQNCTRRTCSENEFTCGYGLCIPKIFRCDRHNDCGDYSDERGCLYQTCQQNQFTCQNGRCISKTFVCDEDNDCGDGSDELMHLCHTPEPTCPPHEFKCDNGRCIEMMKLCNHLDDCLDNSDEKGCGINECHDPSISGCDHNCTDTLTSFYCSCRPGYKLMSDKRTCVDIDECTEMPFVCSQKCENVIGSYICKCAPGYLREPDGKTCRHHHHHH

T2: complex of vitamin D binding protein with the 3C-epimer of 25(OH)D3 (human, UniProt P02774 17-474)
T2 construct: Same protein as m4, occupied by the epimer; also called DBP:3-epi-25(OH)D3
T2 sequence (looked up): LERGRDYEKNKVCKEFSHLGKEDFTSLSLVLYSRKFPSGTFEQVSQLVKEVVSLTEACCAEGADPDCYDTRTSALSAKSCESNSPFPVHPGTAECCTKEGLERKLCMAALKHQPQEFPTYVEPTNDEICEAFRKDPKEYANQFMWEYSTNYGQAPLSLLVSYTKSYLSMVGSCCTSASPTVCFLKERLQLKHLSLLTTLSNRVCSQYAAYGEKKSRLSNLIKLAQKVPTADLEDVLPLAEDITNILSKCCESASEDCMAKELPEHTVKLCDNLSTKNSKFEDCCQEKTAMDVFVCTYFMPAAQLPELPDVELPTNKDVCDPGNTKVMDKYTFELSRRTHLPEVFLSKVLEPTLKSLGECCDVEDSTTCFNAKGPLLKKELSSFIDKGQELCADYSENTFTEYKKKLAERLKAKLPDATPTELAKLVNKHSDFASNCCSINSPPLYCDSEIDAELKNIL

T3: complex of vitamin D binding protein with 24,25-dihydroxyvitamin D (DBP-24,25VD) (human, UniProt P02774 17-474)
T3 construct: Same protein as m4; 50 nM NT-647-labelled DBP was mixed with 37.8 nM metabolite; also called DBP:24,25(OH)VD
T3 sequence (looked up): T2 sequence (looked up)

T4: complex of vitamin D binding protein with 25-hydroxyvitamin D2 (DBP:25(OH)VD2) (human, UniProt P02774 17-474)
T4 construct: Same protein as m4; 50 nM NT-647-labelled DBP was mixed with 37.8 nM metabolite; also called DBP-VD2
T4 sequence (looked up): T2 sequence (looked up)

B1: Human RAP (ligand, UniProt P30533 35-357, looked up)
chain: YSREKNQPKPSPKRESGEEFRMEKLNQLWEKAQRLHLPPVRLAELHADLKIQERDELAWKKLKLDGLDEDGEKEARLIRNLNVILAKYGLDGKKDARQVTSNSLSGTQEDGLDDPRLEKLWHKAKTSGKFSGEELDKLWREFLHHKEKVHEYNVLLETLSRTEEIHENVISPSDLSDIKGSVLHSRHTELKEKLRSINQGLDRLRRVSHQGYSTEAEFEEPRVIDLWDLAQSANLTDKELEAFREELKHFEAKIEKHNHYQKQLEIAHEKLRHAESVGDGERVSRSREKHALLEGRTKELGYTVKKHLQDLSGRISRARHNEL
B2: DBP-1,25(OH)VD3 complex (ligand)
chain: T2 sequence (looked up)
modifications: The protein carries the red fluorescent dye NT-647 (positions not stated). 1,25(OH)2 vitamin D3 is bound non-covalently and cannot be written in letters. It is a natural glycoprotein.
notes: also called DBP:1,25(OH)2D3
B3: complex of vitamin D binding protein with 25-hydroxyvitamin D3 (DBP:25(OH)D3) (ligand, human, UniProt P02774 17-474, looked up)
chain: T2 sequence (looked up)
notes: Same protein as m4, occupied by the small molecule 25(OH)D3; Both are treated as this one entry; also called DBP:VD3; DBP/VD3
B4: vitamin D binding protein (DBP) alone, without added vitamin D metabolite (ligand, human, UniProt P02774 17-474, looked up)
chain: T2 sequence (looked up)
notes: also called apoprotein DBP; non-complexed DBP
B5: soluble recombinant megalin M2 fragment (amino acids 1024-1429 of human LRP2/megalin, C-terminal 6x His tag) (receptor)
chain: EQCGLFSFPCKNGRCVPNYYLCDGVDDCHDNSDEQLCGTLNNTCSSSAFTCGHGECIPAHWRCDKRNDCVDGSDEHNCPTHAPASCLDTQYTCDNHQCISKNWVCDTDNDCGDGSDEKNCNSTETCQPSQFNCPNHRCIDLSFVCDGDKDCVDGSDEVGCVLNCTASQFKCASGDKCIGVTNRCDGVFDCSDNSDEAGCPTRPPGMCHSDEFQCQEDGICIPNFWECDGHPDCLYGSDEHNACVPKTCPSSYFHCDNGNCIHRAWLCDRDNDCGDMSDEKDCPTQPFRCPSWQWQCLGHNICVNLSVVCDGIFDCPNGTDESPLCNGNSCSDFNGGCTHECVQEPFGAKCLCPLGFLLANDSKTCEDIDECDILGSCSQHCYNMRGSFRCSCDTGYMLESDGRTCKHHHHHH
notes: Expressed in and secreted by HEK cells, with the signal peptide removed; It tends to dimerise and is the fragment most easily dissociated to monomer; also called E1024-K1429

The target in experiment [1] is B5. Kind of experiment: peptide array of megalin M2 region; major binding epitopes of megalin ligands.
Experiment [2] deals with B5. Kind of experiment: microscale thermophoresis; NT-647-labelled DBP mixed with 1,25(OH)VD3; purified megalin M2 titrated (set-up as in paragraph 103). In general terms: MST reads how a fluorescent partner responds to local heating, with and without ligand.
Experiment [3] deals with T1, soluble recombinant megalin M3 fragment …. Kind of experiment: co-immunoprecipitation with lysate of HEK cells expressing M3; pull-down with anti-His antibody beads; Western blot with anti-DBP antibody. (A western blot detects proteins with antibodies after separation by electrophoresis.)
Another experiment addresses Human C1q (human, UniProt P02745 23-245; P02746 28-253; P02747 29-245). The experiment is described as follows: peptide array of megalin M2 region; major binding epitopes of megalin ligands.
For another experiment, the target named is T5, Human Albumin-His-tag (human, UniProt P02768 25-609).
T5 construct: not shown: His-tag
The experiment is described as above.

Experiment [4] deals with B3. Kind of experiment: MST, NT-647-labelled DBP (50 nM) mixed with 25(OH)VD3 (37.8 nM), megalin M2 titrated.
Experiment [5] addresses T2, complex of vitamin D binding protein …. Kind of experiment: microscale thermophoresis; NT-647-labelled DBP (50 nM) mixed with the vitamin D metabolite (37.8 nM), here 3epi25(OH)VD3; purified megalin M2 titrated.
In experiment [6] the target is T3, complex of vitamin D binding protein …. The experiment is described as follows: MST, NT-647-labelled DBP (50 nM) mixed with 24,25VD (37.8 nM), megalin M2 titrated.
For experiment [7], the target named is B3. Kind of experiment: MST, NT-647-labelled DBP (50 nM) with VD3 (50 nM), megalin fragment titrated.
The target in experiment [8] is B4. The experiment is described as follows: MST, NT-647-labelled DBP (50 nM), megalin fragment titrated, absence of 25-OH vitamin D3; microscale thermophoresis; NT-647-labelled DBP, purified soluble M2 titrated 0.488-1000 nmol/L; absence of 25-OH vitamin D3.
In experiment [9] the target is T4, complex of vitamin D binding protein …. The experiment is described as follows: MST, NT-647-labelled DBP (50 nM) mixed with 25(OH)VD2 (37.8 nM), megalin M2 titrated.

T5 sequence (P02768 25-609 limits assumed): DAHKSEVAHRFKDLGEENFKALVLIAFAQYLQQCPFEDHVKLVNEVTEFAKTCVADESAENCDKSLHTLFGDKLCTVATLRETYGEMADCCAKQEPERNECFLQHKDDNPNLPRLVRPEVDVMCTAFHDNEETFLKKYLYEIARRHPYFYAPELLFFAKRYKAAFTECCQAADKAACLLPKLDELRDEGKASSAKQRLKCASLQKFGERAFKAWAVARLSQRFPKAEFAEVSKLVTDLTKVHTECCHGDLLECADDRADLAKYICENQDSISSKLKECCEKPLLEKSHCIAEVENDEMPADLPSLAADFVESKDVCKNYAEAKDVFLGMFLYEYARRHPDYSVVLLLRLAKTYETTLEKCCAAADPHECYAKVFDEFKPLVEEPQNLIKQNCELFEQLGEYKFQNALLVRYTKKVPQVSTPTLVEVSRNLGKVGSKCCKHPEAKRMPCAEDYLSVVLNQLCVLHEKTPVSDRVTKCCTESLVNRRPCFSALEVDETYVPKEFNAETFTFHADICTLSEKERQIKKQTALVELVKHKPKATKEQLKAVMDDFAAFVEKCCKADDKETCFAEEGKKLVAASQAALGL
Sequence of Human C1q (P02745 23-245 limits assumed, chain 1 of 3): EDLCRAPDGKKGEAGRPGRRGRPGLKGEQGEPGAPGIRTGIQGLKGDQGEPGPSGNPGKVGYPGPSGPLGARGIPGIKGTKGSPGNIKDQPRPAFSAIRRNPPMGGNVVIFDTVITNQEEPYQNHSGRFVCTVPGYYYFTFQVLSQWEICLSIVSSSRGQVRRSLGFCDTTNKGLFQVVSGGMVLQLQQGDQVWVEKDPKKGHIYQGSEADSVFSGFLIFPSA
Sequence of Human C1q (P02746 28-253 limits assumed, chain 2 of 3): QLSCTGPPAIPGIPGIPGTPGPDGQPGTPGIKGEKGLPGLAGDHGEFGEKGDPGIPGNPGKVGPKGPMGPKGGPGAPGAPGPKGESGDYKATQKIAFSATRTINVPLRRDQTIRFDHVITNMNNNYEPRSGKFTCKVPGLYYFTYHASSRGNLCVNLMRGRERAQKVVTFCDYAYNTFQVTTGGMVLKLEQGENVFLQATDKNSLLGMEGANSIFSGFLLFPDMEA
Sequence of Human C1q (P02747 29-245 limits assumed, chain 3 of 3): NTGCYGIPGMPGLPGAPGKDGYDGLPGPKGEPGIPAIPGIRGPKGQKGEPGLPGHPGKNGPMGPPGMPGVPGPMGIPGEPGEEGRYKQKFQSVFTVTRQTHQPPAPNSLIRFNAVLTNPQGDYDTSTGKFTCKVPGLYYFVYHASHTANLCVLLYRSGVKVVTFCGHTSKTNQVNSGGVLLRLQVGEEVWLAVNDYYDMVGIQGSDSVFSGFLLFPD

In the case of B1, the binding result in experiment [1] is on record as “binds”.

For the molecule B2, the Kd in experiment [2] was determined as 18.1 nM.

Regarding B3, the binding result in experiment [3] is on record as “no binding (tested: DBP 0,5 µg with VD3 0,2 µg)”.

Turning to B4, the binding result in experiment [3] is recorded as “no binding (tested: DBP 0,5 µg)”.

Consider B5, for which the binding result with Human C1q and with Human Albumin-His-tag was “binds” each time. For the same molecule, the equilibrium dissociation constant (Kd) came to 33.7 nM in [4]; 5.86 nM in experiment [5]; 171 nM in experiment [6]; 23.7 nM in [7]; 134 nM in [8]; 160 nM in experiment [9].

In general, Kd refers to the free concentration of one partner at which half of the binding sites on the other are occupied at equilibrium, for simple one-to-one binding.
